From patent publication US20250109210A1 (ABSCI, published 2025) come the findings set out here.

Assay [1] concerns the target T1, TL1A (UniProt O95150 72-251, limits assumed).
T1 construct: also called TNFSF15
T1 sequence (looked up): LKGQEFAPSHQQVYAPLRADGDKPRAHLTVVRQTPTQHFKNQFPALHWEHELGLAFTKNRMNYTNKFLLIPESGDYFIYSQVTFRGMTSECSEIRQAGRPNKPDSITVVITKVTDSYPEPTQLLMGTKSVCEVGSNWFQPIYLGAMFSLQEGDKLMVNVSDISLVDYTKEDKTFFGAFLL
Description: selectivity ELISA: antibody pre-incubated with TL1A, inhibition of TL1A binding to plate-coated DR3. On the technique in general: In an ELISA, binding on a coated surface is turned into a signal by an enzyme label.

For assay [2], the target named is T1, TL1A. The experiment in a line: selectivity ELISA: antibody pre-incubated with TL1A, inhibition of TL1A binding to plate-coated DcR3.

B1: MK-7240 (antibody, V domains shown)
VH: QVQLVQSGAEVKKPGASVKVSCKASGFDIQDTYMHWVKQRPGQGLEWMGRIDPASGHTKYDPKFQVRVTITRDTSTSTVYLELSSLRSEDTAVYYCARSGGLPDVWGQGTTVTVSS
VL: EIVLTQSPGTLSLSPGERATLSCRASSSVSYMYWYQQKPGQAPRPLIYATSNLASGIPDRFSGSGSGTDFTLTISRLEPEDFAVYYCQQWEGNPRTFGGGTKLEIK
As to B1, the IC50 in the assay with TL1A [1] turned out to be 6.3 µg/mL; in the assay with TL1A [2], 3.6 µg/mL.

The term IC50 denotes the midpoint of a concentration-inhibition curve. Higher therefore signals weaker potency in that assay.
